Laboratory results reported in doi:10.1101/2023.02.28.530553.

Experiments:
MBP-OsNLP3 = MBP-OsNLP3 (Oryza sativa L., UniProt Q5NB82 1-938); assay: EMSA
MBP-OsRFL = molecular target: T1, MBP-OsRFL (Oryza sativa L., UniProt Q0JAI1 1-389); assay: EMSA
T1 sequence: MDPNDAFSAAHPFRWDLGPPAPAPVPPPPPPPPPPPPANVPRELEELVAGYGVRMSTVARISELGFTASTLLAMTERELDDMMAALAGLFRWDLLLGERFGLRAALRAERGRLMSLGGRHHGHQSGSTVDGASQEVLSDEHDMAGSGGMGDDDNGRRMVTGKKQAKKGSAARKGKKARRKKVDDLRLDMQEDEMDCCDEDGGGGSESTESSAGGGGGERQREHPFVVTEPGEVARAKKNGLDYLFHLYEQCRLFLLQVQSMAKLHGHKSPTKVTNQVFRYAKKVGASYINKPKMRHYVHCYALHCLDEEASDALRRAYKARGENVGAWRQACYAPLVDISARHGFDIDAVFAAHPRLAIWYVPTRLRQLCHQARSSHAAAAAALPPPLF

MBP-OsNLP3, sequence (Q5NB82 whole entry): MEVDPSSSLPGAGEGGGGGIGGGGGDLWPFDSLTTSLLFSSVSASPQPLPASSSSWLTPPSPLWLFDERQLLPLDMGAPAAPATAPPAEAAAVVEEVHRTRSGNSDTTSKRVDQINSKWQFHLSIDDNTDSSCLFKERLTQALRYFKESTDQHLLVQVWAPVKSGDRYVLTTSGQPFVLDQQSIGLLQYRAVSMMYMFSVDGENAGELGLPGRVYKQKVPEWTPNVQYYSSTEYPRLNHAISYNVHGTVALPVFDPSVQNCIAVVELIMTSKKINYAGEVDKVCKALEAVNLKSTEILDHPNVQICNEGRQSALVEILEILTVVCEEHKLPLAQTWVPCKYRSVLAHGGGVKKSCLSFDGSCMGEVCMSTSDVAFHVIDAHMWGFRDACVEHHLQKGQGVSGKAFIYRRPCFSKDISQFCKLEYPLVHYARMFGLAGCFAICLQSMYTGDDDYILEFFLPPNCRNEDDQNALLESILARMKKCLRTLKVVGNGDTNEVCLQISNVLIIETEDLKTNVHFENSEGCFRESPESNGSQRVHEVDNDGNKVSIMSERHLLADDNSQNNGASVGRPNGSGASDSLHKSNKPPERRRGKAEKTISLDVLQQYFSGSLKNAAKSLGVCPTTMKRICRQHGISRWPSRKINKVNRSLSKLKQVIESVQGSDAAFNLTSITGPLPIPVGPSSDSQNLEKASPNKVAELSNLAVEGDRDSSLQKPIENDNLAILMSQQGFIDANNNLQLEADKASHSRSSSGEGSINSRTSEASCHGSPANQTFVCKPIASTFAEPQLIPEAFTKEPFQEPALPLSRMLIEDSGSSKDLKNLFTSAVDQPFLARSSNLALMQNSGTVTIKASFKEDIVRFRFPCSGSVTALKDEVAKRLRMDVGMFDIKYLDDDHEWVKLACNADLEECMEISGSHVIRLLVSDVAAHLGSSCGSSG

B1: OsRFL promoter NRE probe (EMSA/OsRFL-3) (dsDNA)
DNA 1: TAATACTGTTGTTTGATACTAATGAGTCAAGTTG
DNA 2: CAACTTGACTCATTAGTATCAAACAACAGTATTA
B1: binds (MBP-OsNLP3).

B2: OsMOC1 promoter probe (EMSA/OsMOC1) (dsDNA)
DNA 1: TGGTGTTACCACTGGCTTGATCA
DNA 2: TGATCAAGCCAGTGGTAACACCA
B2: binds (MBP-OsRFL).
